Experimental findings from article PMC4138198 are described below.

Assay [1] has as its target Pmr (plasmid pCAR1 (isolated originally from P. resinovorans CA10)). As to the kind of experiment: SEC; 1 ml of purified protein at 140 uM on HiLoad 16/60 Superdex 200 prep grade in buffer B (20 mM Tris-HCl pH 7.5, 4°C, 0.5 M NaCl, 10% glycerol, 0.5 M imidazole); fractions checked by Tricine-SDS-PAGE and anti-His Western blot.
For assay [2] the target is unchanged. Description: SPR; Biacore 2000, biotinylated Pmr, TurA or TurB (about 500 RU) immobilised on streptavidin chip SA, Pmr as analyte at lower concentrations; 4°C, 20 mM Tris-HCl pH 7.5, 0.5 M NaCl, 5% glycerol, 475 mM imidazole, 30 ul/min; Req divided by the immobilised amount.
The next assay concerns the target TurA (P. putida KT2440). The assay is described as above.
Assay [3] concerns the target Pmr-R8A (plasmid pCAR1 (isolated originally from P. resinovorans CA10)). Description: SEC; 1 ml of purified protein at 140 uM on HiLoad 16/60 Superdex 200 prep grade in buffer B (20 mM Tris-HCl pH 7.5, 4°C, 0.5 M NaCl, 10% glycerol, 0.5 M imidazole); fractions checked by Tricine-SDS-PAGE and anti-His Western blot.

As to Pmr (natural protein), the stoichiometry N in assay [1] was 35 -mer. The binding amount of APmr per ligand homodimer, relative to LTurB-APmr (in assay [2]; with TurA (P. putida KT2440)) was 2 fold in each case.

On to Pmr-R8A (natural protein), for which the stoichiometry N in assay [3] is 6 -mer.
